Measurements reported in PMC2912072.

Molecular target: human BKCa (Slo1) RCK1 domain (322IIE...HDP667) carrying the D362A/367A mutations (human)
Experiment: SEC

human BKCa (Slo1) RCK1 domain (322IIE...HDP667) carrying the D362A/367A mutations (domain or fragment)
stoichiometry N: > 16
